Assay results as given in article PMC8659124, “Structural Analysis of Saccharomyces cerevisiae Dihydroorotase Reveals Molecular Insights into the Tetramerization Mechanism” (Molecules, 2021).
Where “and” joins values, the source holds several entries; their conditions need not be identical. Identical values can stand only once.

Tests used:
[1] = target: DHOase domain of human CAD (human); test: cross-linking; glutaraldehyde 1%, individual DHOase 3 uM, 4 C, 20 min; Coomassie Blue-stained SDS-PAGE
[2] = target: Klebsiella pneumonia DHOase (Klebsiella pneumonia); test: as above
[3] = target: the molecule itself; test: crystal structure; complex form I with malate, 16% PEG 4000, 100 mM imidazole-malate, pH 7.0, room temperature; PDB 6L0A, 1.79 A, space group P2(1), four molecules per asymmetric unit
[4] = target: the molecule itself; test: cross-linking; glutaraldehyde 0.5%, DHOase 3 uM, 4 C, 20 min; Coomassie Blue-stained SDS-PAGE
[5] = target: the molecule itself; test: SEC; Superdex 200 prep grade, protein 10 mg/mL in 20 mM MES, 100 mM NaCl, pH 6.0, 0.5 mL/min; calibrated with proteins of known molecular weight
[6] = target: the molecule itself; test: cross-linking; glutaraldehyde 1%, individual DHOase 3 uM, 4 C, 20 min; Coomassie Blue-stained SDS-PAGE

Question: How did the stoichiometry N [1] turn out when “DHOase domain of human CAD (domain or fragment)” was run?
Answer: The stoichiometry N was 2.

Question: For Klebsiella pneumonia DHOase (enzyme), which stoichiometry N [2] is on record?
Answer: The stoichiometry N was 2.

B1: Saccharomyces cerevisiae dihydroorotase (enzyme)
chain: MVQEIDLGLTCDMHVHVREGAMCELVTPKIRDGGVSIAYIMPNLQPPITTLDRVIEYKKTLQKLAPKTTFLMSFYLSKDLTPDLIHEAAQQHAIRGVKCYPAGVTTNSAAGVDPNDFSAFYPIFKAMQEENLVLNLHGEKPSVHDGDKEPIHVLNAEEAFLPALKKLHNDFPNLKIILEHCTSESAIKTIEDINKNVKKATDVKVAATLTAHHLFLTIDDWAGNPVNFCKPVAKLPNDKKALVKAAVSGKPYFFFGSDSAPHPVQNKANYEGVCAGVYSQSFAIPYIAQVFEEQNALENLKGFVSDFGISFYEVKDSEVASSDKAILFKKEQVIPQVISDGKDISIIPFKAGDKLSWSVRWEPR
modifications: carbamylated lysine (Kcx) at 98
notes: Dihydroorotase of Saccharomyces cerevisiae, the monofunctional DHOase encoded by an independent gene; monomer about 40 kDa; Two Zn ions and malate in the active site of each subunit in the crystals; also called ScDHOase; DHOase
Question: With B1 as the molecule, how does the “stoichiometry N” value [3] read?
Answer: The value was 4.

Question: What about the “stoichiometry N” value [4] of the same molecule?
Answer: Its value is 2.

Question: And the “stoichiometry N” value [5]?
Answer: Its value is ~2 and ~4.1.

B2: Salmonella enterica serovar Typhimurium LT2 DHOase (enzyme, UniProt P06204 1-348, looked up)
chain: MTAPSQVLKIRRPDDWHVHLRDGDMLKTVVPYTSEIYGRAIVMPNLASPITTVDAAIAYRQRILDAVPAGHDFTPLMTCYLTDSLDADELERGFHEGVFTAAKLYPANATTNSSHGVTSVDAIMPVLERMEKLGIPLLVHGEVTHADVDIFDREARFIDTVMEPLRQRLTALKVVFEHITTKDAAQYVRDGNDYLAATITPQHLMFNRNDMLVGGIRPHLYCLPILKRNIHQQALRELVASGFTRAFLGTDSAPHSRHRKETSCGCAGCFNAPSALGSYAAVFEEMNALAHFEAFCSLNGPQFYGLPMNTGWVELVRDEQQIPGNIALADDSLVPFLAGETVRWSVKK
notes: Dihydroorotase of Salmonella enterica serovar Typhimurium LT2; also called StDHOase
Question: B2 was tested. Which “stoichiometry N” value [6] did it give?
Answer: The value was 2.
